{"source": "paper PMC3537844", "about": "(Nature structural & molecular biology, 2012)", "biological_target": "the molecule itself", "test": "crystal structure", "data": [{"protein": "Methylated MxiAC (318-686) (domain or fragment, Shigella flexneri, UniProt P0A1I5 318-686, looked up, reductive methylated by dimethylamine borane complex (DMAB) and formaldehyde) VVEKEKSLSESDSSGYTGTFDIDNSHDSSLAMIENLDAISSETVPLILLFAENKINANDMEGLIERIRSQFFIDYGVRLPTILYRTSNELKVDDIVLLINEVRADSFNIYFDKVCITDENGDIDALGIPVVSTSYNERVISWVDVSYTENLTNIDAKIKSAQDEFYHQLSQALLNNINEIFGIQETKNMLDQFENRYPDLLKEVFRHVTIQRISEVLQRLLGENISVRNLKLIMESLALWAPREKDVITLVEHVRASLSRYICSKIAVSGEIKVVMLSGYIEDAIRKGIRQTSGGSFLNMDIEVSDEVMETLAHALRELRNAKKNFVLLVSVDIRRFVKRLIDNRFKSILVISYAEIDEAYTINVLKTI", "values": [{"measurement": "stoichiometry N", "value": 9}]}]}
